Measurements taken from PMC11364227.

Target: SARS-CoV-2 prototype-Beta RBD-dimer PB (two truncated RBDs, 329-537, in tandem) (SARS-CoV-2 (prototype) | SARS-CoV-2 (Beta variant)) (UniProt P0DTC2)
Assay: SPR

Substance | Kd [nM]
C022 | 5.1
CR3022 | 293
S2H97 | 1.6
S2K146 | 4
S309 | 7.6
SA55 | 6.6
XGv347 | 0.2
